A short description of this series: soluble fraction after stress (log2 fold change); higher = more stays soluble; pooled small domains, quantitative proteomics. The following applies: stress: 50 degC. A digest of the protocol:
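After stress at 50°C, the amount of each protein still soluble was measured. This was done on pooled custom libraries of small protein domains, using high-throughput quantitative proteomics. The figure given is a base-two log fold change and stands for aggregation propensity, with higher values meaning more protein stays in solution.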

Take “HMTIGKIVNIIEGSYANVRSAPDQNSEPIGRAYPGDAFLVDPLGSSGDWVKVTYEGQSGFIFQAYISV”: the “soluble fraction (log2)” value is -1.29.
The same measure for “HMAIGDYYINASALNVRSGEGTNYRIIGALPQGQKVQVISENSGWSKINYNGQTGYIGTRYLSKTPV”: -0.00322; for “HMGTVQSVDRALLLLSEIGREPGGLVDLSTRVRLATSTTGRILATLEHAGAVVRGDDGIYHIGPLVHGMVS”: -0.839.
The same measure for “HMPLDKDTTLDEIYRRFNMEHPADYKGHSLSMGDIVVFRQDGKQTAYYVDEGADYRQVPEFFVK”: 0.0346; for “HMHLPDNAVSIISELKMTPEEVLELIGKLPHDFLFLPYSQRKKIIVDLIPNKDYKLLMSLIKKFML”: -1.12; for “HMAHESYVKEQLLLSLTNHEDPIMQISLIEQLTKMHERNIIHELEKLTVDVQTNEEVKVQAYASLLILS”: -0.53.
Consider “HMEERDMKGSISDLVERYADQLTDEQLEEIVLGIKNGLLEEDVKSYFFLPAEDMRRIRTALEQVR”, for which the “soluble fraction (log2)” value was 0.00866.
In the case of “HMVAMGQRVVPLTHLSIDDVRRLLESTYGKDSGIEVTKPGTAAKGVIVTAPRTELDGIVALVKQA” it was 0.0987; in that of “HMKKGATVSGVIVEKTKKSLIIDLGAKTEGVVADKEFEFAIDFVKELKKGDEVKAIVISTDNDKGQVVLSL”, -0.155; in that of “HMSVTYRYSYVYNGNTYSDGWSVRRAIENNENKRFGPEPSDLDHEAQKQARVTFWAEHGVEYKEQEVV”, -0.879.
In the case of “HMSNWYGTVVKIQPRPNAQAADTAVVKLLDGSEHRFPVWADHLTTIEVGSRLKKLSGGWDPVLMDPEETF” it was -0.454; in that of “HMEWTVEKQAAATLNAWMRKNSEMTSEKKVAVAAGIGPATVNRIMKAEVSTTIGVLSSLARAFGHEAYEMI”, -0.276.
The same measure for “HMDEAETELIRRMVSEHPPTTKRERDIVQMRLRGYLFVEIGEAYGISFQRAAQIYNAAVEKIKEYWD”: 0.00188; for “HMNEFAYLIKISPEHNNNRYYRMVAEGDNFRIEMGRIGASPVQMKRPMYLWNETYQKKLQEGYTDRTSYTS”: -1.92; for “HMLMRKAEVGVESLNLRHGPGTQYKVLEILPGGKSLHYLAEPRRGWVRVTTEEGTTGWTFLKFLKPE”: -1.96.
Take “HMTISPYTKDDFLKGTKPFEDVYAHKADPFVHDRALEQMTIWAKSVGVNGFKKLYKAYIDSLRIKNKEI”: the “soluble fraction (log2)” value amounted to 0.0524.
For the sequence “HMKHFTYEEMELMSIYDPGTREGLIANLEEMRGYLEPDETELRELTDSALEKLRELSDADYEQLELI”, the “soluble fraction (log2)” value was -0.476.
For the sequence “HMHESLAEVAARKLRALIVTGELAPGERVTEAGLTDLLEISRTPAREAIRILSSEGLLVVFPNRGAEVV”, the “soluble fraction (log2)” value is -0.822.
With “HMGWTTPAGIAVGMDKSVLQDAYGKEDDTFQDKGILYYQYFVHPSRMSGLSFGIKNDKIVSITAYMD”, the “soluble fraction (log2)” value was -2.06.
Take “HMSQDTLIGRVGVIVIGQARTGSPAQVRVKDGFGQTHYVMAEPDSEGVLKQGEAVLLVSLEGNTFKAILNP”: the “soluble fraction (log2)” value is -0.286.
“HMTYQHQSIIHRRTRGAILTAAKELLAESGISGTNMIEIADRAQVSRASLYNHFRDKHEVFLALVES”: the “soluble fraction (log2)” value was -0.677.
The same measure for “HMPKSKTPDDAAEEFRTAFSALDMDGKVTVKDMAEYMGVIDKTVYARLKKMGDEFTLDKGVITKKT”: -0.0532; for “HMSSLEQVYPNPVSSILKLNSFIKNYKILNATGHEVLKGSGNTINVGKLPSGSYFLITSENYSIKFIK”: -1.24; for “HMKQPNFTVIETKILELLFQKDLSSREMQEILKISKDNLIFALQNLLEQEKIVLQTSNTYTVN”: -1.15.
In the case of “HMDKLEKRILDYLLQKSAIDGSTILKISHREMAMDLGTAREVVTRILKKLETGGFVRQGENYLEILK” it was -0.145.
For the sequence “HMKETLSINSTDFEVRRSSRRKRISVGFDTGTETFFIAAPTKLAGTDILRILGPQISRLMDRLT”, the “soluble fraction (log2)” value was -1.95.
In the case of “HMNFTETENRIYEEILKNVKQHKKKTVVQIAEKVDVAPSYVIKVAKKLGYSGLNEMWYSLSGIY” it was -0.54.
In the case of “HMIIMVNLYQIWDKEVQGLDSVGAKPEQIEARRQAIAAHFESKARQAGMSSKDIYATLDNFDTYSRQKTS” it was -2.28.
For “HMKEAISIYPNPVKDILTIRGMDETSGVSFKLYDVTGNLLLESTHSELDMSGLNRGVYFLDIAGDVRKVVK”, the “soluble fraction (log2)” value was 0.0696.
In the case of “HMTLNTQLFTWKKGVRVGEDDQGNIYYRTKDDKRRWVIFTGETEATKVSPDWHGWLHRTWATPPNK”, the “soluble fraction (log2)” value was -2.39.
The same measure for “HMKFYKMIDESDEKIENPEIMIFQIIELVSSTTYSAIINKEPVDVETLKPYLYQTIRTIIINHQS”: 0.144; for “HMPSSQQVMRRLATVGPDKTLEELQRQHDAHLRKYGEFNDFRGERQQMRQEMERIKEAKQGTGPYAHLMG”: 0.0233; for “HMKLTNIQYETLKVVVESRAKIDEEEGITIKLEDIKKYIDQAISFTGLVGDDEDYKKLFADMEYRFKIQ”: -2.38.
“HMQTTQQLIRNLRLKQAATLLADKRHSITEVATLTGFTHPTYFATAFREMFGVSPSEYMEQHI”: the “soluble fraction (log2)” value was -0.86.
In the case of “HMELEWENYSLAGEIKTTVMLYQNRRNGLPEEAKQKADALMKQLKQAVIENDAQKVEKIDDALTALLFE”, the “soluble fraction (log2)” value was -0.15.
In the case of “HMHGEAEFLDATAVVMEKLNPGGLVKIKGEIWQAVSKDGHTIQEGEKVRVFERQGITLLVGHF” it was -0.171; in that of “HMQNYLEVLRLHELGMGQRKIAQQVHTSRDTIRKIIAIAENQGLNYSNLIGKTDNELSKVFG”, -0.307; in that of “HMDPTHDMHFLVKDQVTGQPLPNMPYRLQLDNGQTLTGRTDALGMTEKISGHSPHIASIEVPY”, 0.18.
The same measure for “HMVGNYYDILGVPETATQDAIKKAFRSLAQQHHPDKNPDDPGAEAMFKKVSEAYQVLSDPDKRQTYDASL”: 0.00894; for “HMETLKEVPNLKGQQQEVAKQLLINAGLGVGKINIIEDSTIADGEVVTQSILPNTKVKKDTYVGFTVNKAP”: 0.0969.
The same measure for “HMYITGAVIRKLREKNNITQLQLAERLRVSDKTISKWETGKGYPDITLLEPIAKTFSVSVTELISGDI”: -1.32; for “HMDRQIQITVAENEAGQRLDAFLAAKIPDMSRSYIQKLIEDGLILVNGQSTKGKVKTYSGMNIEVYMPE”: 0.166; for “HMLQKVELSDNEKFIFDSLQKEQKMALLRLKELVNLSNKAWDVSVKNLTKQGLVKVTKIDEELLIEI”: -0.949.
As for “HMDSIQMKNNSILYYGNTAGYLDAKRNTAVVDPMFRTDEMESYLSEQKGLSVEWASGTYDRLT”, the “soluble fraction (log2)” value came to 0.149.
In the case of “HMNEIYHQIKVDNVSDDDISLFQYSGIEFDHADYRRGEYIEFAISNRDLSILNNLGYEYQVVHH” it was -0.757; in that of “HMSTTDGIERFLASGAVKGIGRTMAARIVEHFGSRTLTVMESEPERLTEVAGIGRKKAESIAASYAELS”, -0.156; in that of “HMTTKEEAAYQAIRSAIIDGELKPGQSVTIRDLASRFDLGRTPITDAMKHLALDGWLETTTGVGTRV”, -0.106.
With “HMATVTVPNLKGMTPSGAESALAELNLKGAVGDSVESNDVENGKVASQDQAAGSDAKEGDTITYHLSS”, the “soluble fraction (log2)” value is 0.0967.
In the case of “HMFLPGETFDVKIVKIGEGENQGVGYLDDGTMIVIENGRDHLNELARVIVTRVLQNSAGQMIFSDYEE”, the “soluble fraction (log2)” value is -2.27.
For the sequence “HMVVSDSAEIDKIVQDVIAANPKAIEDFKSGKTNVTGWLMGQVMKLSHGKANPKQATEILNKYLSK”, the “soluble fraction (log2)” value stood at 0.354.
In the case of “HMVVRRLPFGFSKRFGVLVVPGTSNPVELLYREDASMQSLLEARRVVAQPVAFKKTDVESFNAQLARAHEN”, the “soluble fraction (log2)” value is -1.23.
In the case of “HMTLREQISALIKQGKLTQAKLARETGVNGGALSAWINGKYTGNVETVEEPIKHWMALNERK” it was 0.373; in that of “HMSKMVEMSQEKSREKVARVKIEIQKMLDRKERVTVSGLERATGFSNSFFYRNEEVNQAVKEAQLKQ”, 0.0985.
In the case of “HMKWYDSDKGFGFLSQEEGEDVYVRSSALPAGVEGLKAGQRVEFGIASGRRGPQALSL” it was -0.0714; in that of “HMKGRPTTAIITDERTNLRSGPGATNKTIAQAGAGEKLAIIDEKDGWYQVSRAGINGWVAGWVIDVAW”, -0.441.
The same measure for “HMWNKGETKIPTQAQNELIKRRQAGATWTSLSEWLKATYGIDIHRTNIQRWYDKEVYLDQEN”: -0.316; for “HMEQPLSLKLANNAFSRFWGNANPAEKDTQPNNSDIAKWVIEQSGGKITQTMADKIAQIIRPEWAA”: 0.184.
“HMDFDVELTSAGTAKVKVIKAVREATGLGLKEAKDLVDNAPSIVKEGLDEAAANDLKAALEETGASVTL”: the “soluble fraction (log2)” value came out at 0.117.
The same measure for “HMGYSDEIGEFIKKLRTENHLTQKEFADKYGVTYQAVSKWENGKNLPDMSLIKQMSEDFNIGIDELLDGEK”: -0.00754.
In the case of “HMPDFLAELAARMERDAVTEAQIRQVVAQKGHYPEEVSPAQYHPDFFRQWLFPHWEKIVDVIRSSPEYTP” it was -0.0503; in that of “HMRRSKQERQQAIKTLISNEQIQRQEDLVRKLNEAGWEVTQATISRDITEMQLVKVPLPTGGFAYAVM”, 0.126; in that of “HMIDFTHEDIERLWNAIVHYVPERQKSDMAIDFIKSLEDIGVEHDEIKASAEYDPKLEEAINTVY”, -0.352.
In the case of “HMEPKIKQIVPNVVNYPVEDAKNVLVNSGLIVQIRGQGNIVYDQVPKGGAEVTRGTTVILDLNPPPGA” it was 0.42.
In the case of “HMLPNLWVMGPGDHLWRVAEVAMTKHLGRPVANHEIDGYWRRLVALNRESLIDPDNPDLVFAGQVIELPPF”, the “soluble fraction (log2)” value was -2.32.
With “HMFPATAPQLKAVHAILGKQGISDELDKLARVNEWLVGLNKEPVAAISELDKHTTSGLIDHLQGELNE”, the “soluble fraction (log2)” value is 0.282.
With “HMSENEVQAKVKEIVDRYAGDKSALIAILQDVQDEYRYLPKEALVSIQQQMNIPLSRVYEVATFYDAFS”, the “soluble fraction (log2)” value was -0.424.
The same measure for “HMIMISKSFEINEDNINKRLDIFLTENLDGLSRGIVQKYISLEQITVNKESSHKDYRLKLDDFIEVKIQAH”: -3.76.
As for “HMSWEDSLLKQAREIIDMYPQKRSAVGPLLHLAQSKDGYISDDSISVISKLVGITEVQLKSVSTFYSMYK”, the “soluble fraction (log2)” value was -1.59.
Regarding “HMSKNYYEILGVTPDVELSQLKAVYRRLVRKYHPDINPDGELIFKDITEAYEVLSDEKQRKQYDMINGF”, the “soluble fraction (log2)” value was -0.0246.

These data come from the domain aggregation screens of Martell et al. (2025).
